The values below come from publication doi:10.1101/2021.07.23.453469 (bioRxiv, 2021).

The target in this test is T1, outer-capsid protein σ3 on T3SA- virions (reovirus strain T1L, UniProt P07939 1-365).
T1 sequence (looked up): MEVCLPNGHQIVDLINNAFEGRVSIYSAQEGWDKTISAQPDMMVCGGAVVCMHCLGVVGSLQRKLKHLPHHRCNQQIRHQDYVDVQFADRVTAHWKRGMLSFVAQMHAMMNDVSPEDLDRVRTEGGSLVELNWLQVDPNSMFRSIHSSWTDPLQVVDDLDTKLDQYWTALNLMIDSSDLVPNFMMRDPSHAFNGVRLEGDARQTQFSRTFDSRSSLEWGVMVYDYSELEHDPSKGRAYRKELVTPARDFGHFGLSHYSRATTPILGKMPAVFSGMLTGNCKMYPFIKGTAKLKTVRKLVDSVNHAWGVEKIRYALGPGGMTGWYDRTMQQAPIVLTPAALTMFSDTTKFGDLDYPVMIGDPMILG
In words: cryo-EM structure.

B1: NgR1-His (domain or fragment, human, UniProt Q9BZR6 27-310, looked up)
chain: CPGACVCYNEPKVTTSCPQQGLQAVPVGIPAASQRIFLHGNRISHVPAASFRACRNLTILWLHSNVLARIDAAAFTGLALLEQLDLSDNAQLRSVDPATFHGLGRLHTLHLDRCGLQELGPGLFRGLAALQYLYLQDNALQALPDDTFRDLGNLTHLFLHGNRISSVPERAFRGLHSLDRLLLHQNRVAHVHPHAFRDLGRLMTLYLFANNLSALPTEALAPLRALQYLRLNDNPWVCDCRARPLWAWLQKFRGSSSEVPCSLPQRLAGRDLKRLAANDLQGCA
Consider B1, for which the binding result was “binds”.
